US20110097323A1

Key:
CD16A F158 (human) = CD16A F158 (human) (UniProt P08637); test: Table 3; relative to wild-type Fc; method not stated
CD32B (FcγRII-B) = CD32B (FcγRII-B) (UniProt P31994); test: as above
CD16A V158 (human) = CD16A V158 (human) (UniProt P08637); test: as above
HER-2 = HER-2 (UniProt P04626); test: SPR (BIAcore 1000), HER-2 amine-coupled to chip, antibody injected at 6.25-200 nM

Chain of CD32B (FcγRII-B) (P31994 43-217 limits assumed): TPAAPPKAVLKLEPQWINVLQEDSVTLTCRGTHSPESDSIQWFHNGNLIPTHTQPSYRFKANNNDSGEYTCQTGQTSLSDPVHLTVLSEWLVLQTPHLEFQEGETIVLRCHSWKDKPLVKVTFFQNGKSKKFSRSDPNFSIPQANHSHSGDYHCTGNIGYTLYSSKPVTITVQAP
Chain of CD16A F158 (human) (P08637 17-208 limits assumed): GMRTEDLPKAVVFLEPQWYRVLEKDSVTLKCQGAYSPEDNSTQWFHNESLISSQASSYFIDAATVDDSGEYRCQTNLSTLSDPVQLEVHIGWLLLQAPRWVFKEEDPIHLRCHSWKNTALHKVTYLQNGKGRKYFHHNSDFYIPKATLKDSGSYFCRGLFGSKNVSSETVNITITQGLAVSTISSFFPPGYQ
Chain of CD16A V158 (human) (P08637 17-208 F176V limits assumed): as the sequence (P08637 17-208 limits assumed) above, with F160V counted along it

In the case of “Fc variant F243I R292P Y300L V305I P396L (from UniProt P01857 99-330)”, the binding relative to wild-type Fc (fold) (CD16A F158 (human)) is reported as 3.12 and the binding relative to wild-type Fc (fold) (CD32B (FcγRII-B)) is reported as 1.05.
In the case of “Fc variant F243L R292P P300L (from UniProt P0DOX5 228-449)”, the binding relative to wild-type Fc (fold) (CD16A F158 (human)) is reported as 2.3, the binding relative to wild-type Fc (fold) (CD16A V158 (human)) is reported as 6.69 and the binding relative to wild-type Fc (fold) (CD32B (FcγRII-B)) is reported as 0.32.
Substance “Fc variant V284M R292P K370N (from UniProt P01857 99-330)” has a binding relative to wild-type Fc (fold) (CD16A F158 (human)) of 1.37, a binding relative to wild-type Fc (fold) (CD16A V158 (human)) of 1.14 and a binding relative to wild-type Fc (fold) (CD32B (FcγRII-B)) of 0.37.
With ch4D5 (antibody) the koff (HER-2) was 6.3e-06 s⁻¹ and the kon (HER-2) was 110000 M⁻¹ s⁻¹.
